Here are results for seven molecules from patent US20220064291A1 (Merck Sharp & Dohme, published 2022).

The chains are these.
B5: BTN3A1-Fc (recombinant human BTN3A1 Fc-chimera, HEK293-expressed, R&D Systems) (Fc fusion, not shown: a dimerising Fc or GST)
chain: not shown

For experiment [1], the target named is T1, BTN2A2-Fc (recombinant human BTN2A2 Fc-chimera, HEK293-expressed, R&D Systems) (human, UniProt Q8WVV5 33-265).
T1 construct: Bought Fc-chimera; Biotinylated for the yeast display selections; not shown: Fc part of the bought Fc-chimera
T1 sequence (looked up): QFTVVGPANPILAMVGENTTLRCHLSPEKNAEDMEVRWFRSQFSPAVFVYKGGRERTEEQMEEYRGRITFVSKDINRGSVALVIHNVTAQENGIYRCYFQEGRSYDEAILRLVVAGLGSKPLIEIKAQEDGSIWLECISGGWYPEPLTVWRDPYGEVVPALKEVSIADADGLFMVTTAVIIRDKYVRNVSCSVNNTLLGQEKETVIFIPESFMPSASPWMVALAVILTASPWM
Kind of experiment: Octet isoform binding screen. On the technique in general: Biolayer interferometry detects binding as a change in optical thickness at a sensor tip.

Experiment [2] addresses B5. Kind of experiment: binding affinity, method not stated (Octet named in text).
Experiment [3] concerns the target T2, BTN3A2-Fc (recombinant human BTN3A2 Fc-chimera, HEK293-expressed, R&D Systems) (human, UniProt P78410 30-248).
T2 construct: Bought Fc-chimera; Biotinylated for the yeast display selections; not shown: Fc part of the bought Fc-chimera
The description is as above.

The target in experiment [4] is T3, BTN3A3-Fc (recombinant human BTN3A3 Fc-chimera, HEK293-expressed, R&D Systems) (human, UniProt O00478 30-248).
T3 construct: Bought Fc-chimera; Biotinylated for the yeast display selections; not shown: Fc part of the bought Fc-chimera
T3 sequence (O00478 30-248, change not shown): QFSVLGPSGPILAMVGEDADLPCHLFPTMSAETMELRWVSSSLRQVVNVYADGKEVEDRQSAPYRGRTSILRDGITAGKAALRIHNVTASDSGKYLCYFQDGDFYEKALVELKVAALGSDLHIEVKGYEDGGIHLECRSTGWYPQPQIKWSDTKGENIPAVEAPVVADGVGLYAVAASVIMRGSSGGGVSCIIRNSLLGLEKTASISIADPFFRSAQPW
The experiment is described as above.

Experiment [5] has as its target T2, BTN3A2-Fc (recombinant human BTN3A2 …). Kind of experiment: Octet isoform binding screen.
For experiment [6], the target named is T3, BTN3A3-Fc (recombinant human BTN3A3 …). Put plainly: Octet isoform binding screen.
The target in experiment [7] is anti-BTN3A antibody (clone 20.1, Biolegend, catalog #342702). Kind of experiment: cell-based or functional assay.

T2 sequence (P78410 30-248, change not shown): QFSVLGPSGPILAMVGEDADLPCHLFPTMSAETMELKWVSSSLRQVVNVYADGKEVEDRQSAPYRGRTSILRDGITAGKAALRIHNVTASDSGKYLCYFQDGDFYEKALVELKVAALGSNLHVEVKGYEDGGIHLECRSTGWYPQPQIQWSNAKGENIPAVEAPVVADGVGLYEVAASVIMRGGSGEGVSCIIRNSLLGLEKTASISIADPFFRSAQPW

B1: Antibody 1G (antibody, IgG1, V domains shown)
VH: QVQLVQSGAEVKKPGASVKVSCKASGYTFTSYGISWVRQAPGQGLEWMGWISAYNGNTNYAQKLQGRVTMTTDTSTSTAYMELRSLRSDDTAVYYCARLGATVAYFDLWGRGTLVTVSS
VL: EIVLTQSPATLSVSPGERATLSCRASQSVSSNLAWYQQKPGQAPRLLIYGASTRATGIPARFSGSGSGTEFTLTISSLQSEDFAVYYCQQDVYWPFTFGGGTKVEIK
notes: isotype hIgG1-297A (IgG1 N297A); kappa germline VK3-15.10
With B1, the binding result in experiment [1] is “no binding”. Further, the Kd in experiment [2] amounted to 0.974 nM; in experiment [3], 2.71 nM; in experiment [4] it was 1.13 nM.

B2: Antibody 2A (antibody, IgG1, V domains shown)
VH: QVQLVQSGAEVKKPGASVKVSCKASGYTFTSYYIHWVRQAPGQGLEWMGIINPSGGSTSYAQKFQGRVTMTRDTSTSTVYMELSSLRSEDTAVYYCARATWEALHYWGQGTLVTVSS
VL: EIVMTQSPATLSVSPGERATLSCRASQSVGSNLAWYQQKPGQAPRLLIYGASTRATGIPARFSGSGSGTEFTLTISSLQSEDFAVYYCQQYYAWPRTFGGGTKVEIK
notes: isotype hIgG1-297A (IgG1 N297A); kappa germline VK3-15.1
For B2, the binding result in experiment [5] and in experiment [1] was “no binding” each time. Moreover, the figures for the Kd in experiment [2] and in experiment [4] were 4.38 nM and 8.52 nM, respectively.

B3: Antibody 3B (antibody, IgG1, V domains shown)
VH: QVQLVQSGAEVKKPGASVKVSCKASGYTFTSYYMHWVRQAPGQGLEWMGIINPSGGSTSYAQKFQGRVTMTRDTSTSTVYMELSSLRSEDTAVYYCARPSGDYSGYDALDVWGQGTMVTVSS
VL: EIVLTQSPATLSLSPGERATLSCRASQSVSSYLAWYQQKPGQAPRLLIYDASNRATGIPARFSGSGSGTDFTLTISSLEPEDFAVYYCQQDPYWPITFGGGTKVEIK
notes: isotype hIgG1-297A (IgG1 N297A); kappa germline VK3-11.0
With B3, the binding result in experiment [1] is “no binding”. Moreover, the Kd in experiment [2] stood at 2.1 nM; in experiment [3] it was 4.57 nM; in experiment [4] it was 2.08 nM.

B4: Antibody 2L (antibody, IgG1, V domains shown)
VH: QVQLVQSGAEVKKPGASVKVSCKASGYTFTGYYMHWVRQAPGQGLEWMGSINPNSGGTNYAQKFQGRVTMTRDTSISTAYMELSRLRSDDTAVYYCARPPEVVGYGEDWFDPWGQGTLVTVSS
VL: DIQMTQSPSSVSASVGDRVTITCRASQGISSWLAWYQQKPGKAPKLLIYAASNLQSGVPSRFSGSGSGTDFTLTISSLQPEDFATYYCQQGNDLPITFGGGTKVEIK
notes: isotype hIgG1-297A (IgG1 N297A); kappa germline VK1-12.7
For the molecule B4, the binding result in experiment [5], in experiment [6] and in experiment [1] was “no binding” in each case. Also, the Kd in experiment [2] amounted to 3.94 nM.

B5: in experiment [7], the “IC50 (read off the curve): inhibition of 20.1-mediated reactivation of latent HIV (luciferase RLU)” value was ~0.2 µg/mL.

B6: Antibody 3A (antibody, IgG1, V domains shown)
VH: QVQLVQSGAEVKKPGASVKVSCKASGYTFTSYYMHWVRQAPGQGLEWMGIINPGGGSTSYAQKFQGRVTMTRDTSTSTVYMELSSLRSEDTAVYYCARDAGHDYGDMAYWGQGTLVTVSS
VL: DIQMTQSPSTLSASVGDRVTITCRASQSISSWLAWYQQKPGKAPKLLIYKASSLESGVPSRFSGSGSGTEFTLTISSLQPDDFATYYCQQYRSFPTFGGGTKVEIK
notes: isotype hIgG1-297A (IgG1 N297A); kappa germline VK1-05.6
For the molecule B6, the binding result in experiment [5] and in experiment [1] was “no binding” throughout. The Kd worked out at 2.76 nM in experiment [2] and 1.4 nM in experiment [4].

B7: Antibody 1F (antibody, IgG1, V domains shown)
VH: QVQLQESGPGLVKPSQTLSLTCTVSGGSISSGGYYWSWIRQHPGKGLEWIGSIYYSGSTYYNPSLKSRVTISVDTSKNQFSLKLSSVTAADTAVYYCARLHSSQSSSTYWGQGTLVTVSS
VL: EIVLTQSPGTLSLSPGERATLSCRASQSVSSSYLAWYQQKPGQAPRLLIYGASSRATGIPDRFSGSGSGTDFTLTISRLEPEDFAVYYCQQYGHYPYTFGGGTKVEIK
notes: isotype hIgG1-297A (IgG1 N297A); kappa germline VK3-20.0
Take B7: the binding result in experiment [5], in experiment [6] and in experiment [1] was “no binding” in each case. For the same molecule, the Kd in experiment [2] came out at 1.53 nM.

As a reminder, the Kd is the free concentration of one partner at which half of the binding sites on the other are occupied at equilibrium, for simple one-to-one binding.
